Reference: the Human Domainome abundance scans (Beltran et al. 2025)
± gives the uncertainty stated by the source.

B1: KAT8 regulatory NSL complex subunit 2, residues 28 to 91; numbered along this chain, Q9H9L4 (parent)
chain: CAFTHRPCSHPRLEGQEFCIKHILEDKNAPFKQCSYISTKNGKRCPNAAPKPEKKDGVSFCAEH

Variants of: B1
Test: abundance fitness (aPCA) (normalised: wild type 0, dead -1); higher = more abundant; growth selection in yeast, the domain comes from the species named
Settings: Homo sapiens
CAFTHRPCSHPRLEGQEFCIKHILEDKNAPFKQCSYISTKNGKRCPNWAPKPEKKDGVSFCAEH showed an abundance fitness of -0.333 ± 0.062.
CAFTHRPCSHPRLEGQEFCIKHILEDKNAPFKQCSYISTKNGKRCPNEAPKPEKKDGVSFCAEH showed an abundance fitness of -0.28 ± 0.074.
CAFTHRPCSHPRLEGQEFCIKHILEDKNAPFKQCSYISTKNGKRCPNCAPKPEKKDGVSFCAEH gave an abundance fitness of -0.078 ± 0.092.
CAFTHRPCSHPRLEGQEFCIKHILEDKNAPFKQCSYISTKNGKRCPNLAPKPEKKDGVSFCAEH showed an abundance fitness of -0.16 ± 0.046.
In the case of CAFTHRPCSHPRLEGQEFCIKHILEDKNAPFKQCSYISTKNGKRCPNPAPKPEKKDGVSFCAEH, the abundance fitness is reported as -0.079 ± 0.054.
With CAFTHRPCSHPRLEGQEFCIKHILEDKNAPFKQCSYISTKNGKRCPNQAPKPEKKDGVSFCAEH the abundance fitness was -0.238 ± 0.058.
In the case of CAFTHRPCSHPRLEGQEFCIKHILEDKNAPFKQCSYISTKNGKRCPNYAPKPEKKDGVSFCAEH, the abundance fitness is reported as -0.167 ± 0.086.
With CAFTHRPCSHPRLEGQEFCIKHILEDKNAPFKQCSYISTKNGKRCPNMAPKPEKKDGVSFCAEH the abundance fitness was -0.159 ± 0.053.
For CAFTHRPCSHPRLEGQEFCIKHILEDKNAPFKQCSYISTKNGKRCPNRAPKPEKKDGVSFCAEH, the abundance fitness was -0.166 ± 0.045.
With CAFTHRPCSHPRLEGQEFCIKHILEDKNAPFKQCSYISTKNGKRCCNAAPKPEKKDGVSFCAEH the abundance fitness was -0.065 ± 0.056.
Variant CAFTHRPCSHPRLEGQEFCIKHILEDKNAPFKQCSYISTKNGKRCHNAAPKPEKKDGVSFCAEH has an abundance fitness of -0.165 ± 0.083.
Work on CAFTHRPCSHPRLEGQEFCIKHILEDKNAPFKQCSYISTKNGKRCWNAAPKPEKKDGVSFCAEH yielded an abundance fitness of -0.024 ± 0.062.
With CAFTHRPCSHPRLEGQEFCIKHILEDKNAPFKQCSYISTKNGKRCMNAAPKPEKKDGVSFCAEH the abundance fitness was -0.1 ± 0.074.
For CAFTHRPCSHPRLEGQEFCIKHILEDKNAPFKQCSYISTKNGKRCGNAAPKPEKKDGVSFCAEH, the abundance fitness was -0.022 ± 0.037.
For CAFTHRPCSHPRLEGQEFCIKHILEDKNAPFKQCSYISTKNGKRCDNAAPKPEKKDGVSFCAEH, the abundance fitness was -0.155 ± 0.075.
In the case of CAFTHRPCSHPRLEGQEFCIKHILEDKNAPFKQCSYISTKNGKRCRNAAPKPEKKDGVSFCAEH, the abundance fitness is reported as -0.042 ± 0.043.
Work on CAFTHRPCSHPRLEGQEFCIKHILEDKNAPFKQCSYISTKNGKRCINAAPKPEKKDGVSFCAEH yielded an abundance fitness of -0.073 ± 0.061.
With CAFTHRPCSHPRLEGQEFCIKHILEDKNAPFKQCSYISTKNGKRCQNAAPKPEKKDGVSFCAEH the abundance fitness was -0.1 ± 0.1.
Work on CAFTHRPCSHPRLEGQEFCIKHILEDKNAPFKQCSYISTKNGKRCTNAAPKPEKKDGVSFCAEH yielded an abundance fitness of -0.049 ± 0.056.
CAFTHRPCSHPRLEGQEFCIKHILEDKNAPFKQCSYISTKNGKRCVNAAPKPEKKDGVSFCAEH showed an abundance fitness of -0.069 ± 0.068.
For CAFTHRPCSHPRLEGQEFCIKHILEDKNAPFKQCSYISTKNGKRCYNAAPKPEKKDGVSFCAEH, the abundance fitness was -0.105 ± 0.065.
CAFTHRPCSHPRLEGQEFCIKHILEDKNAPFKQCSYISTKNGKRCKNAAPKPEKKDGVSFCAEH gave an abundance fitness of 0.025 ± 0.1.
In the case of CAFTHRPCSHPRLEGQEFCIKHILEDKNAPFKQCSYISTKNGKRCSNAAPKPEKKDGVSFCAEH, the abundance fitness is reported as -0.049 ± 0.04.
With CAFTHRPCSHPRLEGQEFCIKHILEDKNAPFKQCSYISTKNGKRCLNAAPKPEKKDGVSFCAEH the abundance fitness was -0.079 ± 0.042.
Work on CAFTHRPCSHPRLEGQEFCIKHILEDKNAPFKQCSYISTKNGKRCNNAAPKPEKKDGVSFCAEH yielded an abundance fitness of -0.014 ± 0.062.
CAFTHRPCSHPRLEGQEFCIKHILEDKNAPFKQCSYISTKNGKRCFNAAPKPEKKDGVSFCAEH gave an abundance fitness of -0.148 ± 0.072.
CAFTHRPCSHPRLEGQEFCIKHILEDKNAPFKQCSYISTKNGKRCENAAPKPEKKDGVSFCAEH gave an abundance fitness of -0.031 ± 0.094.
CAFTHRPCSHPRLEGQEFCIKHILEDKNAPFKQCSYISTKNGKRCPNAAFKPEKKDGVSFCAEH gave an abundance fitness of -0.135 ± 0.062.
In the case of CAFTHRPCSHPRLEGQEFCIKHILEDKNAPFKQCSYISTKNGKRCPNAANKPEKKDGVSFCAEH, the abundance fitness is reported as -0.126 ± 0.072.
For CAFTHRPCSHPRLEGQEFCIKHILEDKNAPFKQCSYISTKNGKRCPNAASKPEKKDGVSFCAEH, the abundance fitness was -0.104 ± 0.054.
Work on CAFTHRPCSHPRLEGQEFCIKHILEDKNAPFKQCSYISTKNGKRCPNAAAKPEKKDGVSFCAEH yielded an abundance fitness of -0.213 ± 0.082.
In the case of CAFTHRPCSHPRLEGQEFCIKHILEDKNAPFKQCSYISTKNGKRCPNAARKPEKKDGVSFCAEH, the abundance fitness is reported as -0.106 ± 0.069.
Variant CAFTHRPCSHPRLEGQEFCIKHILEDKNAPFKQCSYISTKNGKRCPNAAMKPEKKDGVSFCAEH has an abundance fitness of -0.219 ± 0.13.
Variant CAFTHRPCSHPRLEGQEFCIKHILEDKNAPFKQCSYISTKNGKRCPNAAHKPEKKDGVSFCAEH has an abundance fitness of -0.135 ± 0.07.
For CAFTHRPCSHPRLEGQEFCIKHILEDKNAPFKQCSYISTKNGKRCPNAALKPEKKDGVSFCAEH, the abundance fitness was -0.131 ± 0.069.
CAFTHRPCSHPRLEGQEFCIKHILEDKNAPFKQCSYISTKNGKRCPNAACKPEKKDGVSFCAEH gave an abundance fitness of -0.1 ± 0.074.
CAFTHRPCSHPRLEGQEFCIKHILEDKNAPFKQCSYISTKNGKRCPNAAGKPEKKDGVSFCAEH gave an abundance fitness of -0.211 ± 0.066.
In the case of CAFTHRPCSHPRLEGQEFCIKHILEDKNAPFKQCSYISTKNGKRCPNAAEKPEKKDGVSFCAEH, the abundance fitness is reported as 0.095 ± 0.2.
CAFTHRPCSHPRLEGQEFCIKHILEDKNAPFKQCSYISTKNGKRCPNAAIKPEKKDGVSFCAEH gave an abundance fitness of -0.184 ± 0.078.
CAFTHRPCSHPRLEGQEFCIKHILEDKNAPFKQCSYISTKNGKRCPNAAKKPEKKDGVSFCAEH gave an abundance fitness of -0.176 ± 0.14.
For CAFTHRPCSHPRLEGQEFCIKHILEDKNAPFKQCSYISTKNGKRCPNAAQKPEKKDGVSFCAEH, the abundance fitness was -0.265 ± 0.2.
With CAFTHRPCSHPRLEGQEFCIKHILEDKNAPFKQCSYISTKNGKRCPNAADKPEKKDGVSFCAEH the abundance fitness was -0.302 ± 0.098.
